# Assay: soluble on expression in E. coli; label from the status in PepcDB or PDB records
row,Sequence,soluble on expression in E. coli
1,MPLGLLWLGLALLGALHAQAQDSTSDLIPAPPLSKVPLQQNFQDNQFQGKWYVVGLAGNAILREDKDPQKMYATIYELKEDKSYNVTSVLFRKKKCDYAIATFVPGSQPGEFTLGNIKSYPGLTSYLVRVVSTNYNQHAMVFFKKVSQNREYFKITLYGRTKELTSELKENFIRFSKSLGLPENHIVFPVPIDQCIDG,soluble
2,MPLHHLTRFPRLEFIGAPTPLEYLPRLSDYLGREIYIKRDDVTPIAMGGNKLRKLEFLVADALREGADTLITAGAIQSNHVRQTAAVAAKLGLHCVALLENPIGTTAENYLTNGNRLLLDLFNTQIEMCDALTDPDAQLQTLATRIEAQGFRPYVIPVGGSSALGAMGYVESALEIAQQCEEVVGLSSVVVASGSAGTHAGLAVGLEHLMPDVELIGVTVSRSVAEQKPKVIALQQAIAGQLALTATADIHLWDDYFAPGYGVPNDAGMEAVKLLASLEGVLLDPVYTGKAMAGLIDGISQKRFNDDGPILFIHTGGAPALFAYHPHV,not soluble
3,MPLPPHLSDRVVALQPSLTLAISARAKALQQEGRDICSLSAGEPDFNTPEFIIDATVKALRDGITRYGPAAGDPELREAIATKLSKENTVPTNAEQVLVTNGGKQAIFNLFQVILNPGDEVLIPAPYWLSYPEMARLAGAKVTTLPSTPENGFCLDLNNLEASIGPKTRLLLLNSPGNPTGRVMARKELETLADLLRDHPQILVMSDEIYEFILEEGQQHYSFSAIAPDLSNRTFIVNGFAKGWAMTGWRLGYLAGPADAVKAATALQSQSTSNVCSFAQRGALAALQGSRECVKKMVKSYNTRRELLTSGLLSLEGMSLVPPKGAFYAFPKLPPESLDSVSFCEQALENHGLAMVPGAAFGDDSCVRLTCAVSPETICDGLERLRKALKQS,not soluble
4,MPLVSMKEMLIDAKENGYAVGQYNINNLEFTQAILEASQEENAPVILGVSEGAARYMSGFYTIVKMVEGLMHDLNITIPVAIHLDHGSSFEKCKEAIDAGFTSVMIDASHSPFEENVATTKKVVEYAHEKGVSVEAELGTVGGQEDDVVADGIIYADPKECQELVEKTGIDALAPALGSVHGPYKGEPKLGFKEMEEIGLSTGLPLVLHGGTGIPTKDIQKAIPFGTAKINVNTENQIASAKAVRDVLNNDKEVYDPRKYLGPAREAIKETVKGKIKEFGTSNRAK,not soluble
5,MPNCPNCQKPVYFAERVSSLGKDWHRPCLKCANKACGKTLSAGSHSEHEGKPYCNRCYGALFGPKGYGHGGTESHTFLQGTTGN,soluble
6,MPNLNAVIAQNISKGDVIWVPYRKDPMWPALVNNAYPKKVSYSFFPLAPGVDETKRSRFSCAPKLTYALVTTEPLPENANSDLKKAHRAACEYLSSNGKTRGSNIQSLGEAAGGSEKMKKMNGEVTKNKTGKPEKRKKKVDSEQQENEEDDEDLMSPVSKKPSSSERSTPSGSQQQPPITEEQSKSMMKMIDDRFEVLINEIWKSDEVAQSKNQTMKDKMTIKLKNNQFLKESDYDIVFERIFNFIRMQNPSLSFISTFNITSSHIIPHILITCYSACRNLDYQTSKEIFYQLNTRVLGLDSSMSIPVTDHLEELCRLACDESDAIQILENEHGDKISKDGTATQTRGNVFEEMR,not soluble
7,MPNVVGVQFQKAGKLEYYAPNQLDVEVGDWVVVQSKRGIEIGHVKFPLREVDVEDVTLPLKNIIRKMNEDDQETYYRNERDANDALELCKKVVKDQQLDMRLVNCEYTLDKSKVIFNFTADDRIDFRKLVKVLAQNLKTRIELRQIGVRDEAKLLGGIGPCGRSLCCSTFLGDFEPVSIKMAKDQNLSLNPTKISGACGRLMCCLKYENDYYEEARTQLPDVGDMIQTPDGHGKVIGLNILDISMQVKIEGLEQPLEYKMEEIEVLNLEHHHHHH,not soluble
8,MPNYRGRHQTRQNWSSKPREEHSPSKGAYRDKIWSGPVSEVARQQTVYDWVTTGAYSLGSPDSWPSYPDEIILMNESRNAQTSRMSRRSATPGPRLSQDRRTRTTAPAVAPIPFQRAQPRVEVERQRIDEPVAQDLIIDDGNGTNNSNDSSICGFVEESEELVYPQWVYYLYPLIPTAPNCNNEKSYKEGGNWYNSP,not soluble

# Source: the DeepSol protein solubility set
